We go through 20 sequences from the supplement of paper PMC9170038.

The data set concerns MS2 coat protein. Kind of data set: apparent KD of MS2 coat protein; higher = weaker reporter binding. The note with it: Eterna round: R107. An outline of the steps: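 Apparent KD was obtained for each design as the median of normalised binding-curve fits over its clusters. RNA switches transcribed on-chip from Illumina sequencing clusters were titrated with SNAP-549-labelled MS2 coat protein (twofold steps, 0.7 or 1.5 nM to 3 µM) in 100 mM Tris-HCl pH 7.5, 80 mM KCl, 4 mM MgCl2, without or with constant ligand.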

The mark [1] stands for this setting: input ligand: theophylline 20 uM.
Setting [2] is: input ligand: theophylline 2 mM.
The mark [3] stands for this setting: input ligand: tryptophan 2.4 mM.

With “UAUAUAUAUCACGAACUGUGGUGUAUGUCUCGAGGACCGGUACGGCCGCCACUCGCGCGGCCUCACAUGAGGAUCACCCAUGUUG [XTryp A #6]”, the “apparent KD of MS2 coat protein” value was 27.9 nM (input ligand: arginine 13.2 mM), 73.7 nM under setting [1] and 78.5 nM under setting [2].
As to “GUAGCGACGACGGCCGCCACUCACAGGUGAGGGUAGACCAACCUUCACAUGAGGAUCACCCAUGUGAGGACCGGGUUGUCGGUAC [#11 Exclusion Tryptophan B]”, the “apparent KD of MS2 coat protein” value by setting is: (input ligand: arginine 13.2 mM) 50.9 nM; (input ligand: none) 134 nM; under setting [1], 95.5 nM; under setting [2], 111 nM; under setting [3], 146 nM.
Take “UGACACAUGAGGAUCACCCAUGUCGCGAAACGAGGACCGGUACGGCCGCCACUCGCACAAACUCCUCUCCAGCACCAGCUUUUAG [theeternabot_sameState_MS2_Trp_A_3]”: the “apparent KD of MS2 coat protein” value by setting is: (input ligand: arginine 13.2 mM) 15.4 nM; under setting [1], 28.2 nM; under setting [2], 24.2 nM.
As for “UGUACCAUGUCGGCCGCCACUCAUGAUAAACAAGAGGAUCACCCUUGUAGCGUCAAAGACGCUAUGAGGACCGGGACAUGGUACU [TryBS Zipper 2]”, the “apparent KD of MS2 coat protein” value is, setting by setting: (input ligand: arginine 13.2 mM) 29.5 nM; (input ligand: none) 29.7 nM; under setting [1], 41.2 nM; under setting [2], 43.9 nM; under setting [3], 15.5 nM.
The like results for “UGGGUACAUGAGGAUCACCCAUGUACUGAAGGAGCGAGAAUUAUCUCAGGUAGGUCGCAGACAUGAGGAUCACCCAUGUAGUAGG [Exclusion Arginine A GF 12]” were, in that order, 25.3 nM, 27.3 nM, 30.6 nM, 37.2 nM and 24.2 nM.
“GGGCCCGGGCGCGAGCCCGGGCCCAUUGAUACCAGUGAUAGAGAGCGCCCUUGGCAGCGAAUCCUAACAUGAGGAUCACCCAUGU [5.K]”: the “apparent KD of MS2 coat protein” value is, setting by setting: (input ligand: arginine 13.2 mM) 37.5 nM; (input ligand: none) 46.3 nM; under setting [1], 95.2 nM; under setting [2], 83.9 nM; under setting [3], 56.6 nM.
The like results for “GGGAUAUCCCGAAGGAGCGCGAGAUGCUGUGCUGCAUUCCUCACAUGAGGAUCACCCAUGUCGCAGGUAGGUCGCGGGAUAUCCC [#16 Exclusion - Arginine B]” were, in that order, 151 nM, 450 nM, 452 nM, 553 nM and 485 nM.
With “GGAUAGGACACGGCCGCCACUGCCUAGGAUACUAGAAACAUUUCCUCACAUGAGGAUCACCCAUGUAGGACCGGGUGUCCUAUCG”, the “apparent KD of MS2 coat protein” value runs as follows: (input ligand: arginine 13.2 mM) 74.9 nM; under setting [1], 161 nM; under setting [2], 121 nM.
For the sequence “GGUUACUCUACGGCCGCCACUGAUAAAUAAUAAACCUGUACAUAAACAUGAGGAUCACCCAUGUACAGGACCGGGUAGUGUAACC [Tryptophan B 7]”, the “apparent KD of MS2 coat protein” value (input ligand: arginine 13.2 mM) was determined as 30.5 nM, the “apparent KD of MS2 coat protein” value under setting [1] is 41.2 nM and the “apparent KD of MS2 coat protein” value under setting [2] amounted to 34.7 nM.
For “AUGUCUGAGUCGGCCGCCACUGGGUGUGGGUGAUGCCGGAUGUUGUACAUGAGGAUCACCCAUGUCAGGACCGGGAUUCCCACGA [Receve]”, the “apparent KD of MS2 coat protein” value by setting is: (input ligand: arginine 13.2 mM) 6.2 nM; (input ligand: none) 10.4 nM; under setting [1], 12.7 nM; under setting [2], 8.73 nM; under setting [3], 10.2 nM.
In the same order, the values of “GGACUAACCAGAAGGAGCGACACGCAGAAACUGCAAAUUCCUCCGCACGAGGAUCACCCGUGUCAGGUAGGUCGCUGGUUAGUCG [ArgBX 28]” are 22.9 nM, 19.4 nM, 33.2 nM, 23.5 nM and 22.4 nM.
On to “GCUGUAAGUGCAGAUACCAGCAGGUGAUAUUUCUAAUGACAUGAGGAUCACCCAUGUAACUGCCCUUGGCAGCUGCACUUACAGC [SSTHB #8]”, for which the “apparent KD of MS2 coat protein” value by setting is: (input ligand: arginine 13.2 mM) 48.5 nM; under setting [1], 32.1 nM; under setting [3], 59.6 nM.
In the case of “GGACUAACCAGAAGGAGCGGCACAAAGCAGAAACUGCAUCCUCCGCACGAGGAUCACCCGUGUCAGGUAGGUCGCUGGUUAGUCG [ArgBX 28]”, the “apparent KD of MS2 coat protein” value was 46.2 nM (input ligand: arginine 13.2 mM); 57.5 nM (input ligand: none); 70.6 nM under setting [1]; 69.5 nM under setting [2]; 62 nM under setting [3].
Turning to “UAAACUACACAUGAGGAUCACCCAUGUGGCCGAGGACCGGUACGGCCGCCACUCGUGUGUUAAUAAAAGAACUGCAAGAUUCUUU [Issoraor]”, the “apparent KD of MS2 coat protein” value was found to be 78.3 nM (input ligand: arginine 13.2 mM), 220 nM under setting [1] and 396 nM under setting [2].
In the case of “ACACAUGAGGAUCACCCAUGUGCAAUAGAUACCAGUGACGCGGUGCACCCUUGGCAGCUGUUGCUGAGUGAUGGUUCCCUCGGAA [Exclusion Theophylline A GF 6]”, the “apparent KD of MS2 coat protein” value by setting is: (input ligand: arginine 13.2 mM) 17.9 nM; under setting [1], 57.6 nM; under setting [3], 42.1 nM.
Turning to “GUUAUUAGAAAACUAAUAACAGUGGGUGAACGAGGACCGGUACGGCCGCCACUCGGACAUGAGGAUCACCCAUGUCCAUGUGAAA [AstrosExyTryA#4]”, the “apparent KD of MS2 coat protein” value (input ligand: arginine 13.2 mM) was determined as 12.1 nM, the “apparent KD of MS2 coat protein” value under setting [1] came out at 15.8 nM and the “apparent KD of MS2 coat protein” value under setting [2] is 16.5 nM.
Regarding “UAUAUAGAUGGAAGUUCUAUAGAUGCAGAAGGAGCGUAGGAAACUACAGGUAGGUCGCUGAGGUACAUGAGGAUCACCCAUGUAG [SSArg A #20 Slice of Pi]”, the “apparent KD of MS2 coat protein” value reads like this: (input ligand: arginine 13.2 mM) 14.3 nM; (input ligand: none) 26.4 nM; under setting [1], 40.5 nM; under setting [2], 26.4 nM; under setting [3], 22.5 nM.
Consider “GGCACAUAGUCGGCCGCCACUAGAAUAAGAUGGAAUAACAUGAGGAUCACCCAUGUAAAAGGGACUAGGACCGGGACUAUGUGCC [Goat]”, for which the “apparent KD of MS2 coat protein” value by setting is: (input ligand: arginine 13.2 mM) 12.9 nM; under setting [1], 15.7 nM; under setting [2], 14.3 nM.
On to “GGUCGCCAACAUGGGUGGGUGACCCUGGAAGGAGCGAGCGAGAGCUCAGGUAGGUCGCCAGAACAUGAGGAUCACCCAUGUAAUA [(A)''-(M)'-(A)'(Arg1)-(Arg2)-(M1)-(M2)_Design14]”, for which the “apparent KD of MS2 coat protein” value (input ligand: arginine 13.2 mM) is 38.3 nM; the “apparent KD of MS2 coat protein” value (input ligand: none) came to 63.5 nM; the “apparent KD of MS2 coat protein” value under setting [1] worked out at 90 nM; the “apparent KD of MS2 coat protein” value under setting [2] was 139 nM; the “apparent KD of MS2 coat protein” value under setting [3] was 65.8 nM.
For “GGGCCCGGGCGCGAGCCCGGGCCCAUUGAUACCAGUGAAGAAGAGCGCCCUUGGCAGCGAAUCCUAACAUGAGGAUCACCCAUGU [5.P]”, the “apparent KD of MS2 coat protein” value is, setting by setting: (input ligand: arginine 13.2 mM) 63.2 nM; (input ligand: none) 43.6 nM; under setting [1], 74.3 nM; under setting [2], 77.3 nM; under setting [3], 38.8 nM.
